# B1: Flag-SART3 (natural protein, UniProt Q15020 1-963, looked up)
# chain: MATAAETSASEPEAESKAGPKADGEEDEVKAARTRRKVLSRAVAAATYKTMGPAWDQQEEGVSESDGDEYAMASSAESSPGEYEWEYDEEEEKNQLEIERLEEQLSINVYDYNCHVDLIRLLRLEGELTKVRMARQKMSEIFPLTEELWLEWLHDEISMAQDGLDREHVYDLFEKAVKDYICPNIWLEYGQYSVGGIGQKGGLEKVRSVFERALSSVGLHMTKGLALWEAYREFESAIVEAARLEKVHSLFRRQLAIPLYDMEATFAEYEEWSEDPIPESVIQNYNKALQQLEKYKPYEEALLQAEAPRLAEYQAYIDFEMKIGDPARIQLIFERALVENCLVPDLWIRYSQYLDRQLKVKDLVLSVHNRAIRNCPWTVALWSRYLLAMERHGVDHQVISVTFEKALNAGFIQATDYVEIWQAYLDYLRRRVDFKQDSSKELEELRAAFTRALEYLKQEVEERFNESGDPSCVIMQNWARIEARLCNNMQKARELWDSIMTRGNAKYANMWLEYYNLERAHGDTQHCRKALHRAVQCTSDYPEHVCEVLLTMERTEGSLEDWDIAVQKTETRLARVNEQRMKAAEKEAALVQQEEEKAEQRKRARAEKKALKKKKKIRGPEKRGADEDDEKEWGDDEEEQPSKRRRVENSIPAAGETQNVEVAAGPAGKCAAVDVEPPSKQKEKAASLKRDMPKVLHDSSKDSITVFVSNLPYSMQEPDTKLRPLFEACGEVVQIRPIFSNRGDFRGYCYVEFKEEKSALQALEMDRKSVEGRPMFVSPCVDKSKNPDFKVFRYSTSLEKHKLFISGLPFSCTKEELEEICKAHGTVKDLRLVTNRAGKPKGLAYVEYENESQASQAVMKMDGMTIKENIIKVAISNPPQRKVPEKPETRKAPGGPMLLPQTYGARGKGRTQLSLLPRALQRPSAAAPQAENGPAAAPAVAAPAATEAPKMSNADFAKLFLRK
# Target: the molecule itself
# Assay: cross-linking
protein,measurement,value
B1,stoichiometry N,2

# Reference: PMC5961147 (Nucleic Acids Research, 2018)
